Measured values published in publication PMC9638876 (EMBO Reports, 2022).

Target: GST-tagged Gcn4 (transcription factor Gcn4) (S. cerevisiae, UniProt P03069 1-281)
Assay: pull-down

GST-tagged Gcn4 (transcription factor Gcn4), sequence (P03069 whole entry): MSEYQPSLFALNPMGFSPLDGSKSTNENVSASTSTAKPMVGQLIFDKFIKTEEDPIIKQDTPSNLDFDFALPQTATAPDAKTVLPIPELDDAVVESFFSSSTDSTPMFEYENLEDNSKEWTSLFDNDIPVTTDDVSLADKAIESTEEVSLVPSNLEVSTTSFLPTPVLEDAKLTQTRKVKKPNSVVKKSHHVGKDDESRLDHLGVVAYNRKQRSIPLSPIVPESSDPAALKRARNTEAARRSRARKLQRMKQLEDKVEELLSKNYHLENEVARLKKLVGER

- binding result: binds
B1: His-tagged Rpb9 (RNA polymerase II subunit Rpb9) (natural protein, S. cerevisiae, UniProt P27999 1-122, looked up)
chain: MTTFRFCRDCNNMLYPREDKENNRLLFECRTCSYVEEAGSPLVYRHELITNIGETAGVVQDIGSDPTLPRSDRECPKCHSRENVFFQSQQRRKDTSMVLFFVCLSCSHIFTSDQKNKRTQFS
